From the supplement of paper PMC7125110
± gives the standard error. For some of these results: Variants at the floor of the assay were thinned out.

B1: glmS ribozyme (parent)
chain: AUAAAAGCGCCAGAACUACAGAAAUGUAGUUGACGAGGAGGAGGUUUAUCGAAUUUUCGGCGGAUGCCUCCAAA

Tests used:
Conditions in all cases: with glucosamine-6-phosphate
[1] = variants of: B1; assay: kcat; higher = faster cleavage; RNA array
How it was run: (§1)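 kobs was derived by fitting per-tile medians to one- or two-exponential decays after normalising signals to baseline and to non-cleaving reference variants. Those signals came from barcoded ribozyme variants transcribed in situ by E. coli RNA polymerase on sequenced MiSeq chips, followed through a hybridised Cy3 probe at 37 °C and imaged over ~14 h. Glucosamine-6-phosphate (40 μM to 10 mM) in HEPES/KCl/Mg(OAc)2 buffer was flowed in. Weighted Michaelis–Menten fits across concentrations then gave kcat and KM.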

[2] = variants of: B1; assay: self-cleavage kobs at 40 uM GlcN6P; higher = faster cleavage; RNA array
How it was run: as §1

[3] = variants of: B1; assay: self-cleavage kobs at 160 uM GlcN6P; higher = faster cleavage; RNA array
How it was run: as §1

[4] = variants of: B1; assay: self-cleavage kobs at 640 uM GlcN6P; higher = faster cleavage; RNA array
How it was run: as §1

[5] = variants of: B1; assay: self-cleavage kobs at 10000 uM GlcN6P; higher = faster cleavage; RNA array
How it was run: as §1

[6] = variants of: B1; assay: KM; higher = weaker cofactor use; RNA array
How it was run: as §1

[7] = variants of: B1; assay: self-cleavage kobs at 2500 uM GlcN6P; higher = faster cleavage; RNA array
How it was run: as §1

Row | Variant | kcat [1] | self-cleavage kobs at 40 uM GlcN6P [2] | self-cleavage kobs at 160 uM GlcN6P [3] | self-cleavage kobs at 640 uM GlcN6P [4] | self-cleavage kobs at 10000 uM GlcN6P [5] | KM [6] | self-cleavage kobs at 2500 uM GlcN6P [7]
1 | C8A C10A G38A C50G | 5.64e-05 ± 2.2e-05 s⁻¹ | 3.68e-05 ± 1.4e-05 s⁻¹ | 8.75e-05 ± 1.8e-05 s⁻¹ | 9.23e-05 ± 1.7e-05 s⁻¹ | 3.67e-05 ± 1e-05 s⁻¹ | – | –
2 | G7A U31G | 2.76e-05 ± 2.9e-06 s⁻¹ | – | – | – | – | 2490 ± 920 µM | –
3 | A36C G66U | < 1e-05 s⁻¹ | – | – | – | – | – | –
4 | U46A U56C | 0.0005 ± 4.2e-05 s⁻¹ | – | – | 0.000158 ± 3.2e-05 s⁻¹ | 0.000424 ± 8.3e-05 s⁻¹ | 1350 ± 250 µM | 0.000362 ± 8.4e-05 s⁻¹
5 | U46C A48C | 0.000204 ± 4.7e-05 s⁻¹ | – | – | – | 0.000136 ± 2.8e-05 s⁻¹ | – | 8.54e-05 ± 2.8e-05 s⁻¹
6 | A48U U54C | 0.000526 ± 0.00015 s⁻¹ | – | – | 5.32e-05 ± 1.7e-05 s⁻¹ | 0.000349 ± 6.3e-05 s⁻¹ | – | 0.000255 ± 5.1e-05 s⁻¹
7 | U57G C58G C68U | 4.52e-05 ± 1.6e-05 s⁻¹ | – | – | 7.15e-05 ± 2.1e-05 s⁻¹ | – | – | –
8 | G32U A64G | 0.000904 ± 0.0002 s⁻¹ | – | 4.19e-05 ± 1.1e-05 s⁻¹ | 0.000178 ± 2.3e-05 s⁻¹ | 0.000774 ± 0.00011 s⁻¹ | 3130 ± 1100 µM | 0.00034 ± 4.6e-05 s⁻¹
9 | C11A A15U U65G C71U | < 1e-05 s⁻¹ | – | – | – | – | – | –
10 | U31A G41A | 0.000876 ± 0.00042 s⁻¹ | – | 8.73e-05 ± 1.5e-05 s⁻¹ | 0.000163 ± 3.6e-05 s⁻¹ | 0.000647 ± 0.00014 s⁻¹ | – | 0.00078 ± 0.00012 s⁻¹
11 | U54A C68G | 9.86e-05 ± 2.8e-06 s⁻¹ | 5.44e-05 ± 1.6e-05 s⁻¹ | 8.95e-05 ± 2.1e-05 s⁻¹ | 8.94e-05 ± 1.3e-05 s⁻¹ | 9.77e-05 ± 9.3e-06 s⁻¹ | 31 ± 7.5 µM | 0.000106 ± 1.9e-05 s⁻¹
12 | A36G G63U C70A | 1.84e-05 ± 7.8e-06 s⁻¹ | – | – | – | – | – | –
13 | U46A U69C | 0.00197 ± 0.00058 s⁻¹ | 9.53e-05 ± 1.9e-05 s⁻¹ | 0.000133 ± 2.7e-05 s⁻¹ | 0.00073 ± 0.00012 s⁻¹ | 0.00162 ± 0.00027 s⁻¹ | 1590 ± 770 µM | 0.00122 ± 0.00015 s⁻¹
14 | C16A G32C | 9.38e-05 ± 2.3e-06 s⁻¹ | – | – | 3.44e-05 ± 1.6e-05 s⁻¹ | 8.41e-05 ± 1e-05 s⁻¹ | 1220 ± 140 µM | 5.99e-05 ± 1.7e-05 s⁻¹
15 | G9U C11A | < 1e-05 s⁻¹ | < 1e-05 s⁻¹ | < 1e-05 s⁻¹ | < 1e-05 s⁻¹ | – | 159 ± 62 µM | –
16 | U47C U54A | 0.00447 ± 0.00014 s⁻¹ | 0.000112 ± 1.8e-05 s⁻¹ | 0.00038 ± 7.2e-05 s⁻¹ | 0.00127 ± 0.00023 s⁻¹ | 0.00384 ± 0.00049 s⁻¹ | 1630 ± 77 µM | 0.00275 ± 0.00072 s⁻¹
17 | U31A G40C | 0.00121 ± 0.00017 s⁻¹ | 3.09e-05 ± 7.3e-06 s⁻¹ | 0.000105 ± 3e-05 s⁻¹ | 0.00048 ± 0.0001 s⁻¹ | 0.00101 ± 0.00011 s⁻¹ | 1410 ± 380 µM | 0.00115 ± 0.00024 s⁻¹
